The target in assay [1] is T1, recombinant HDMX (amino acids 1-490 of SEQ ID NO:104) (Homo sapiens, UniProt O15151).
T1 construct: thioredoxin (N, cleaved yes); S tag (N, cleaved yes); hexahistidine (N, cleaved yes); made in house; host or cells: E. coli (inferred: pET32-LIC vector, handled as described for HDM2 in BL21(DE3))
T1 sequence (O15151 1-490): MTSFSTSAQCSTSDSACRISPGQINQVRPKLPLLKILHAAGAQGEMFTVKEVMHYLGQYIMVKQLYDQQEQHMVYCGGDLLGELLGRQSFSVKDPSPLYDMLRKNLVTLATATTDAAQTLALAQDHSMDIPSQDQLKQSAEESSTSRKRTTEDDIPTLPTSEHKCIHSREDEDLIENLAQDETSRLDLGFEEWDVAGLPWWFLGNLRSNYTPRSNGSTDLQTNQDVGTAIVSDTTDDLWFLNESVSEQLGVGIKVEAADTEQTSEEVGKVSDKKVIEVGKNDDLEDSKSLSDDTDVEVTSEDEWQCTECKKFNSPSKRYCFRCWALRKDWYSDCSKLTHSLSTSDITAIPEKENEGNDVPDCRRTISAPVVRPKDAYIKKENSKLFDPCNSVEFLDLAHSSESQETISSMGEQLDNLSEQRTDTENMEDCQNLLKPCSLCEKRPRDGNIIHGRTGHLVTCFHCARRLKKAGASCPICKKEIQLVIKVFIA
The experiment in a line: Competitive streptavidin pull-down of biotinylated peptides with 1:1 recombinant HDM2/HDMX mixture, HDMX western. The class given is binding. The note with it: biotinylated stapled peptide, 1:1 mixture of recombinant HDM2 and HDMX.

Assay [2] concerns the target T2, recombinant HDM2 (amino acids 17-125 of SEQ ID NO:103) (human, UniProt Q00987 17-125).
T2 construct: also called MDM2; not shown: thrombin cleavage site (pET28a vector)
The assay is described as follows: streptavidin pull-down of biotinylated peptide with recombinant HDM2 and HDMX (1:1 mixture per paragraph 301), western blot.

Bridges are numbered along the chain shown (N, C = ends). Where no end group is shown, it is not given here. [ ]: non-standard residue; d: D form. The star is where a group is joined. Biotin = O=C1N[C@H]2[C@H](CS[C@H]2CCCCC(=O)*)N1; R8 = C=CCCCCCC[C@@](C)(N)C(=O)O; Cba = N[C@@H](CC1CCC1)C(=O)O; S5 = C=CCCC[C@](C)(N)C(=O)O

T2 sequence (Q00987 other isoform, or with tags, fused parts or gaps): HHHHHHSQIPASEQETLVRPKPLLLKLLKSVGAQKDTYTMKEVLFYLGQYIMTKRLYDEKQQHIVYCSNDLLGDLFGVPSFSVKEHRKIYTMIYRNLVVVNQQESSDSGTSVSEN

Turning to “ATSP-7041 B26V (Biotin-LTF[R8]EYWAQV[S5]SAA-NH2; staple 4-11; SMILES CC(C)C[C@H](NC(=O)CCCC[C@@H]1SC[C@@H]2NC(=O)N[C@@H]21)C(=O)N[C@H](C(=O)N[C@@H](Cc1ccccc1)C(=O)N[C@]1(C)CCCCCCC=CCCC[C@@](C)(C(=O)N[C@@H](CO)C(=O)N[C@@H](C)C(=O)N[C@@H](C)C(N)=O)NC(=O)[C@H](C(C)C)NC(=O)[C@H](CCC(N)=O)NC(=O)[C@H](C)NC(=O)[C@H](Cc2c[nH]c3ccccc23)NC(=O)[C@H](Cc2ccc(O)cc2)NC(=O)[C@H](CCC(=O)O)NC1=O)[C@@H](C)O)”, the “HDMX versus HDM2 binding selectivity” value in assay [1] is recorded as “HDMX selectivity over HDM2”.

With “SAH-p53-4 Q16R: Formula (I) stapled peptide: [Xaa]w LSRETF, [Xaa]x DLWKLL, [Xaa]y EN (LSRETF[R8]DLWKLL[S5]EN-NH2; staple 7-14; not fully specified)”, the “HDMX versus HDM2 binding selectivity” value in assay [1] is “dual selectivity to HDMX and HDM2”.

Take “SAH-p53-4 L25E: Formula (I) stapled peptide: [Xaa]w LSQETF, [Xaa]x DLWKEL, [Xaa]y EN (LSQETF[R8]DLWKEL[S5]EN-NH2; staple 7-14; not fully specified)”: in assay [1], the “HDMX versus HDM2 binding selectivity” value is “dual selectivity to HDMX and HDM2”. The same measure, in the same setting: with “SAH-p53-4 T18R: Formula (I) stapled peptide: [Xaa]w LSQERF, [Xaa]x DLWKLL, [Xaa]y EN (LSQERF[R8]DLWKLL[S5]EN-NH2; staple 7-14; not fully specified)” the entry was “selectivity to HDM2”; with “SAH-p53-4 L22A: Formula (I) stapled peptide: [Xaa]w LSQETF, [Xaa]x DAWKLL, [Xaa]y EN (LSQETF[R8]DAWKLL[S5]EN-NH2; staple 7-14; also: biotinylated)”, “dual selectivity to HDMX and HDM2”. Turning to “SAH-p53-4 N29R: Formula (I) stapled peptide: [Xaa]w LSQETF, [Xaa]x DLWKLL, [Xaa]y ER (LSQETF[R8]DLWKLL[S5]ER-NH2; staple 7-14; not fully specified (N-terminus))”, the figures for the “HDMX versus HDM2 binding selectivity” value in assay [1] and in assay [1] (listed as SEQ ID NO:29) were “HDMX selectivity over HDM2” and “selectivity to HDMX”, respectively.

For “SAH-p53-4 L14A: Formula (I) stapled peptide: [Xaa]w ASQETF, [Xaa]x DLWKLL, [Xaa]y EN (ASQETF[R8]DLWKLL[S5]EN-NH2; staple 7-14; also: biotinylated)”, the “HDMX versus HDM2 binding selectivity” value in assay [1] is “dual selectivity to HDMX and HDM2”. Still for that read-out and setting: the entry for “SAH-p53-4 S15A: Formula (I) stapled peptide: [Xaa]w LAQETF, [Xaa]x DLWKLL, [Xaa]y EN (LAQETF[R8]DLWKLL[S5]EN-NH2; staple 7-14; not fully specified)” is “selectivity to HDM2”. In the case of “SAH-p53-4 S15E: Formula (I) stapled peptide: [Xaa]w LEQETF, [Xaa]x DLWKLL, [Xaa]y EN (LEQETF[R8]DLWKLL[S5]EN-NH2; staple 7-14; not fully specified)”, in assay [1], the “HDMX versus HDM2 binding selectivity” value is given as “selectivity to HDM2”. Still for that read-out and setting: the entry for “SAH-p53-4 K24A: Formula (I) stapled peptide: [Xaa]w LSQETF, [Xaa]x DLWALL, [Xaa]y EN (LSQETF[R8]DLWALL[S5]EN-NH2; staple 7-14; not fully specified (N-terminus))” is “selectivity to HDM2”. Regarding “ATSP-7041 B26K (Biotin-LTF[R8]EYWAQK[S5]SAA-NH2; staple 4-11; SMILES CC(C)C[C@H](NC(=O)CCCC[C@@H]1SC[C@@H]2NC(=O)N[C@@H]21)C(=O)N[C@H](C(=O)N[C@@H](Cc1ccccc1)C(=O)N[C@]1(C)CCCCCCC=CCCC[C@@](C)(C(=O)N[C@@H](CO)C(=O)N[C@@H](C)C(=O)N[C@@H](C)C(N)=O)NC(=O)[C@H](CCCCN)NC(=O)[C@H](CCC(N)=O)NC(=O)[C@H](C)NC(=O)[C@H](Cc2c[nH]c3ccccc23)NC(=O)[C@H](Cc2ccc(O)cc2)NC(=O)[C@H](CCC(=O)O)NC1=O)[C@@H](C)O)”, the results for the “HDMX versus HDM2 binding selectivity” value in assay [1] and in assay [1] (listed as SEQ ID NO:64) were “HDMX selectivity over HDM2” and “selectivity to HDMX”, respectively. Regarding “ATSP-7041 B26P (Biotin-LTF[R8]EYWAQP[S5]SAA-NH2; staple 4-11; SMILES CC(C)C[C@H](NC(=O)CCCC[C@@H]1SC[C@@H]2NC(=O)N[C@@H]21)C(=O)N[C@H](C(=O)N[C@@H](Cc1ccccc1)C(=O)N[C@]1(C)CCCCCCC=CCCC[C@@](C)(C(=O)N[C@@H](CO)C(=O)N[C@@H](C)C(=O)N[C@@H](C)C(N)=O)NC(=O)[C@@H]2CCCN2C(=O)[C@H](CCC(N)=O)NC(=O)[C@H](C)NC(=O)[C@H](Cc2c[nH]c3ccccc23)NC(=O)[C@H](Cc2ccc(O)cc2)NC(=O)[C@H](CCC(=O)O)NC1=O)[C@@H](C)O)”, the “HDMX versus HDM2 binding selectivity” value in assay [1] is on record as “HDMX selectivity over HDM2”.

Take “SAH-p53-4 L25A: Formula (I) stapled peptide: [Xaa]w LSQETF, [Xaa]x DLWKAL, [Xaa]y EN (LSQETF[R8]DLWKAL[S5]EN-NH2; staple 7-14; also: biotinylated)”: the “HDMX versus HDM2 binding selectivity” value in assay [1] is “dual selectivity to HDMX and HDM2”.

As to “ATSP-7041 B26D (Biotin-LTF[R8]EYWAQD[S5]SAA-NH2; staple 4-11; SMILES CC(C)C[C@H](NC(=O)CCCC[C@@H]1SC[C@@H]2NC(=O)N[C@@H]21)C(=O)N[C@H](C(=O)N[C@@H](Cc1ccccc1)C(=O)N[C@]1(C)CCCCCCC=CCCC[C@@](C)(C(=O)N[C@@H](CO)C(=O)N[C@@H](C)C(=O)N[C@@H](C)C(N)=O)NC(=O)[C@H](CC(=O)O)NC(=O)[C@H](CCC(N)=O)NC(=O)[C@H](C)NC(=O)[C@H](Cc2c[nH]c3ccccc23)NC(=O)[C@H](Cc2ccc(O)cc2)NC(=O)[C@H](CCC(=O)O)NC1=O)[C@@H](C)O)”, the “HDMX versus HDM2 binding selectivity” value in assay [1] is reported as “HDMX selectivity over HDM2”. In the case of “SAH-p53-4 D21R: Formula (I) stapled peptide: [Xaa]w LSQETF, [Xaa]x RLWKLL, [Xaa]y EN (LSQETF[R8]RLWKLL[S5]EN-NH2; staple 7-14; not fully specified (N-terminus))”, the “HDMX versus HDM2 binding selectivity” value in assay [1] is “dual selectivity to HDMX and HDM2”.

With “LTF8EYWAQBXAAA (Biotin-LTF[R8]EYWAQ[Cba][S5]AAA-NH2; staple 4-11) [ATSP-7041 S28A]”, the “HDMX versus HDM2 binding selectivity” value in assay [1] is “restored dual HDM2/HDMX binding selectivity”; in assay [1] (listed as SEQ ID NO:79), “dual-selectivity to HDMX and HDM2”. As for “SAH-p53-4 Q16E: Formula (I) stapled peptide: [Xaa]w LSEETF, [Xaa]x DLWKLL, [Xaa]y EN (LSEETF[R8]DLWKLL[S5]EN-NH2; staple 7-14; not fully specified (N-terminus))”, the “HDMX versus HDM2 binding selectivity” value is “HDMX selectivity over HDM2” in assay [1] and “selectivity to HDMX” in assay [1] (listed as SEQ ID NO:32).

“SAH-p53-4 K24R: Formula (I) stapled peptide: [Xaa]w LSQETF, [Xaa]x DLWRLL, [Xaa]y EN (LSQETF[R8]DLWRLL[S5]EN-NH2; staple 7-14; not fully specified (N-terminus))”: in assay [1], the “HDMX versus HDM2 binding selectivity” value is “dual selectivity to HDMX and HDM2”. On the same count and under the same terms, the entry for “ATSP-7041 B26C (Biotin-LTF[R8]EYWAQC[S5]SAA-NH2; staple 4-11; SMILES CC(C)C[C@H](NC(=O)CCCC[C@@H]1SC[C@@H]2NC(=O)N[C@@H]21)C(=O)N[C@H](C(=O)N[C@@H](Cc1ccccc1)C(=O)N[C@]1(C)CCCCCCC=CCCC[C@@](C)(C(=O)N[C@@H](CO)C(=O)N[C@@H](C)C(=O)N[C@@H](C)C(N)=O)NC(=O)[C@H](CS)NC(=O)[C@H](CCC(N)=O)NC(=O)[C@H](C)NC(=O)[C@H](Cc2c[nH]c3ccccc23)NC(=O)[C@H](Cc2ccc(O)cc2)NC(=O)[C@H](CCC(=O)O)NC1=O)[C@@H](C)O)” is “HDMX selectivity over HDM2”.

“LTF8EYWEQBXSAA (LTF[R8]EYWEQ[Cba][S5]SAA-NH2; staple 4-11; not fully specified (N-terminus); printed as LTF8EYWEQBXSAA) [ATSP-7041 A24E]”: the “HDMX versus HDM2 binding selectivity” value in assay [1] is “restored dual HDM2/HDMX binding selectivity”; in assay [1] (listed as SEQ ID NO:77) it was “dual-selectivity to HDMX and HDM2”. LTF[R8]EYWAQE[S5]SAA-NH2 (staple 4-11; not fully specified; printed as LTF8EYWAQEXSAA, also called ATSP B26E; LTF8EYWAQEXSAA) [ATSP-7041 B26E]: the binding result in assay [2] was “no binding”.
